Reference: doi:10.1101/2023.03.09.531510

How the values were obtained:
Assay in all cases: protein-fragment complementation
Abp1 = Abp1 (UniProt P15891)
Aim21 = Aim21 (UniProt P40563)
Arc15 = Arc15 (UniProt P40518)
Arc18 = Arc18 (UniProt Q05933)
Arc19 = Arc19 (UniProt P33204)
Arc40 = Arc40 (UniProt P38328)
Bbc1 = Bbc1 (UniProt P47068)
Bmh1 = Bmh1 (UniProt P29311)
Bzz1 = Bzz1 (UniProt P38822)
Cdc10 = Cdc10 (UniProt P25342)
Cdc3 = Cdc3 (UniProt P32457)
Chc1 = Chc1 (UniProt P22137)
Cmd1 = Cmd1 (UniProt P06787)
Hek2 = Hek2 (UniProt P38199)
Hsp104 = Hsp104 (UniProt P31539)
Las17 = Las17 (UniProt Q12446)
Lsb3 = Lsb3 (UniProt P43603)
Mid2 = Mid2 (UniProt P36027)
Myo5 = Myo5 (UniProt Q04439)
Nap1 = Nap1 (UniProt P25293)
Osh2 = Osh2 (UniProt Q12451)
Pab1 = Pab1 (UniProt P04147)
Pan1 = Pan1 (UniProt P32521)
Pfk1 = Pfk1 (UniProt P16861)
Pkh2 = biological target: Pkh2
Rvs167 = Rvs167 (UniProt P39743)
Sac6 = Sac6 (UniProt P32599)
Sbp1 = Sbp1 (UniProt P10080)
Sfk1 = Sfk1 (UniProt P35735)
Sla1 = Sla1 (UniProt P32790)
Sla2 = Sla2 (UniProt P33338)
Smi1 = Smi1 (UniProt P32566)
Srv2 = Srv2 (UniProt P17555)
Ssa1 = Ssa1 (UniProt P10591)
Ssb1 = Ssb1 (UniProt P11484)
Ssb2 = Ssb2 (UniProt P40150)
Ssz1 = Ssz1 (UniProt P38788)
Ste20 = Ste20 (UniProt Q03497)
Syp1 = Syp1 (UniProt P25623)
Tif4631 = Tif4631 (UniProt P39935)
Vrp1 = Vrp1 (UniProt P37370)
Ygl242c = Ygl242c (UniProt P53066)
Yor1 = Yor1 (UniProt P53049)
Ysc84 = Ysc84 (UniProt P32793)
Tdh3 = Tdh3 (UniProt P00359)

Chain of UniProt P32793 (P32793 whole entry): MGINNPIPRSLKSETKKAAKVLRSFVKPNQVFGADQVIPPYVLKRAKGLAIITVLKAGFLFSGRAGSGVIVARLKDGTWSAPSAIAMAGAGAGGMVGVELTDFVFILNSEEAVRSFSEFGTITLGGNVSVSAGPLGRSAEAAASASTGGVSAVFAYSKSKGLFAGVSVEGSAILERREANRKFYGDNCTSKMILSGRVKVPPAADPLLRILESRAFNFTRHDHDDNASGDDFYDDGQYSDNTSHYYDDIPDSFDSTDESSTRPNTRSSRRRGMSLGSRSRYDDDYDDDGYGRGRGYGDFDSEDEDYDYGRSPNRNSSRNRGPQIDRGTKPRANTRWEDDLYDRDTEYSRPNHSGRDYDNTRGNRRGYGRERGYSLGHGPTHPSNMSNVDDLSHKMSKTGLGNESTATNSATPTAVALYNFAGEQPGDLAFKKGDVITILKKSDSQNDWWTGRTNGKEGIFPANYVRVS
Chain of UniProt P15891 (P15891 whole entry): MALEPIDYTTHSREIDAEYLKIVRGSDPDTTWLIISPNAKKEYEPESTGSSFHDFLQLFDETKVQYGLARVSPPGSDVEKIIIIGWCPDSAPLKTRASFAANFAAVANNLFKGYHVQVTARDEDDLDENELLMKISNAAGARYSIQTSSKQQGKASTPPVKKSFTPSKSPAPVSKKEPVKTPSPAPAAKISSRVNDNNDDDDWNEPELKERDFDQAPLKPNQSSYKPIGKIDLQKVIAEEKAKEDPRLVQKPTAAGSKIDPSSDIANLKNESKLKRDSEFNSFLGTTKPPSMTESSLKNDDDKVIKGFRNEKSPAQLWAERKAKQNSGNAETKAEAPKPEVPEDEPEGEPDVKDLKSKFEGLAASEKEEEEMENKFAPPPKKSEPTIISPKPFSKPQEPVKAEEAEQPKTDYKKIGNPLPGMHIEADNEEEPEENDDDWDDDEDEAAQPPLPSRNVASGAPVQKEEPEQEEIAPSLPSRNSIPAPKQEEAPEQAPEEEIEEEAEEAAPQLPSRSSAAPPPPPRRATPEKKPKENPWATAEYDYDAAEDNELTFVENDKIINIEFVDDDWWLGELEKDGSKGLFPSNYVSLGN
Chain of UniProt P37370 (P37370 whole entry): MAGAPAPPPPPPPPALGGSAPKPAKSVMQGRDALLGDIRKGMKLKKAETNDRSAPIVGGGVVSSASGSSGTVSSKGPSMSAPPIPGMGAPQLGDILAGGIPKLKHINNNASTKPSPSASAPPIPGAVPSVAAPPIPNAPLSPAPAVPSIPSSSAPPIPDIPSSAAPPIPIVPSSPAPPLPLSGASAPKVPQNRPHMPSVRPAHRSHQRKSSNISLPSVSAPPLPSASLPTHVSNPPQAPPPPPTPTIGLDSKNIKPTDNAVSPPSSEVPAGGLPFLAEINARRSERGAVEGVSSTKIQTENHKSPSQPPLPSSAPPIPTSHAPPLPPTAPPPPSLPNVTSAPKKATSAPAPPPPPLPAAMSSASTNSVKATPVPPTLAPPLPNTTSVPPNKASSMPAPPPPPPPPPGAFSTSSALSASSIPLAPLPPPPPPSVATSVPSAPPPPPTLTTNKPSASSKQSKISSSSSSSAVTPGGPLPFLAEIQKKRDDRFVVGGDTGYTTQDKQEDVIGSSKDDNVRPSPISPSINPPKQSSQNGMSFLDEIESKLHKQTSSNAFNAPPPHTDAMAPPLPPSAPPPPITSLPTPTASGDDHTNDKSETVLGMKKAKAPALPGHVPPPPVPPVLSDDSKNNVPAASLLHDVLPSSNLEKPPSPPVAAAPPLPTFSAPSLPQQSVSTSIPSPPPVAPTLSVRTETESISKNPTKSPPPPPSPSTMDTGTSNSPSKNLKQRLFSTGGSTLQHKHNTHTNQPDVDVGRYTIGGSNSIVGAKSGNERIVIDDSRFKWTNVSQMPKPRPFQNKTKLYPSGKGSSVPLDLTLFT
Chain of UniProt P35735 (P35735 whole entry): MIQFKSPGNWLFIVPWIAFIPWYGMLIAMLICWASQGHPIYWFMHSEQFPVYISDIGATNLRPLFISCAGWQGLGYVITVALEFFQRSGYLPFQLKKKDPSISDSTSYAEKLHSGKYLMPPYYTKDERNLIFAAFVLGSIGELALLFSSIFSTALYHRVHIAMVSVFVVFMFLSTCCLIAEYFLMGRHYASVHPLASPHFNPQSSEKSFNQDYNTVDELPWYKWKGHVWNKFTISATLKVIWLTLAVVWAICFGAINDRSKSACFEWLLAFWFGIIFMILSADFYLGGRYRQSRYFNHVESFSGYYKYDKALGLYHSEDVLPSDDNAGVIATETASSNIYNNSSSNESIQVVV
Chain of UniProt P38328 (P38328 whole entry): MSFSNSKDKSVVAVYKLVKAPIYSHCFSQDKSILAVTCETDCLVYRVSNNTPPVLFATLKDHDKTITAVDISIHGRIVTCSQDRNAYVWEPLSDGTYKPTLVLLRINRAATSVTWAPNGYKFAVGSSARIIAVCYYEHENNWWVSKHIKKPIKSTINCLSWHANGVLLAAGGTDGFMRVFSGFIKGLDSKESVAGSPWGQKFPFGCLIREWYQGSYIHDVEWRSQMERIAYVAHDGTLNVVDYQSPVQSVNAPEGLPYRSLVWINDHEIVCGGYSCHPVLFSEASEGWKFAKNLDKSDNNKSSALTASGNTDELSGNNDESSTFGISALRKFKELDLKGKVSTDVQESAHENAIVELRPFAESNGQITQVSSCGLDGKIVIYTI
Chain of UniProt P53049 (P53049 whole entry): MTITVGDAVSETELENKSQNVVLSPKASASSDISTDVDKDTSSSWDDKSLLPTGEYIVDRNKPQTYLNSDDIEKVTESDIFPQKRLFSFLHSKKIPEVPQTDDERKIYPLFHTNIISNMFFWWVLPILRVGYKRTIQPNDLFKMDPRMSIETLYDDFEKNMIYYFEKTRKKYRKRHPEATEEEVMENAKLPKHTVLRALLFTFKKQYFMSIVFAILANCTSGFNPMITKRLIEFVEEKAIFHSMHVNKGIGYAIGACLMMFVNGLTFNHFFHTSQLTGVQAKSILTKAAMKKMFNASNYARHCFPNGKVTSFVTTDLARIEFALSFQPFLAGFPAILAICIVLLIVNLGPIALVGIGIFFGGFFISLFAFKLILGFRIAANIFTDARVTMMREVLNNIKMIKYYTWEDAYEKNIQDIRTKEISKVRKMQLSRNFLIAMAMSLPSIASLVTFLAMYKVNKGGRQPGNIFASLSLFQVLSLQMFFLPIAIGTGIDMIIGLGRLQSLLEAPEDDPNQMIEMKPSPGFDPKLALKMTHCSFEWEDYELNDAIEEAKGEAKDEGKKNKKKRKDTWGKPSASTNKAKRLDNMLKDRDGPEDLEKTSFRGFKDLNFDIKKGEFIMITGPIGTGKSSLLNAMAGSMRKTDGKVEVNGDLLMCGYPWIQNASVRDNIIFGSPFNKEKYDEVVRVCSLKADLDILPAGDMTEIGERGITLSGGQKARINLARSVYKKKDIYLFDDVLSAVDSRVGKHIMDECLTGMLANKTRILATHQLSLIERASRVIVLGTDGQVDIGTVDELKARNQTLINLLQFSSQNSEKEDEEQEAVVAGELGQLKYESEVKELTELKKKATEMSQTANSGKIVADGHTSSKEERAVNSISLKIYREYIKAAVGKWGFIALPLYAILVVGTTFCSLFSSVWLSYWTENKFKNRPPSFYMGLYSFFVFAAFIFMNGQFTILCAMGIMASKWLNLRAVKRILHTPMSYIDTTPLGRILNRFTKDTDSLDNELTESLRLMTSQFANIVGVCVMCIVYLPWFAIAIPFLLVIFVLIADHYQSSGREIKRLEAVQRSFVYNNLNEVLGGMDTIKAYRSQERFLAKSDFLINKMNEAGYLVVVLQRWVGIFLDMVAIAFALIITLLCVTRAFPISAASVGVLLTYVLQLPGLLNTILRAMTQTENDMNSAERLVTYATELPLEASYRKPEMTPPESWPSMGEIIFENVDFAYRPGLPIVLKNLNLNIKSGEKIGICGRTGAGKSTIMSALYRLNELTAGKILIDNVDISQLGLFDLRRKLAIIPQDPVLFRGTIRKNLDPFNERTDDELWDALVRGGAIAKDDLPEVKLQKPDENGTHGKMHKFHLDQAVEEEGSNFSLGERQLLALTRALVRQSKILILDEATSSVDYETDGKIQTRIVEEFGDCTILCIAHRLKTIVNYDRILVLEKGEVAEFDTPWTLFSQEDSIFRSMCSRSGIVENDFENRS
Chain of UniProt Q03497 (Q03497 whole entry): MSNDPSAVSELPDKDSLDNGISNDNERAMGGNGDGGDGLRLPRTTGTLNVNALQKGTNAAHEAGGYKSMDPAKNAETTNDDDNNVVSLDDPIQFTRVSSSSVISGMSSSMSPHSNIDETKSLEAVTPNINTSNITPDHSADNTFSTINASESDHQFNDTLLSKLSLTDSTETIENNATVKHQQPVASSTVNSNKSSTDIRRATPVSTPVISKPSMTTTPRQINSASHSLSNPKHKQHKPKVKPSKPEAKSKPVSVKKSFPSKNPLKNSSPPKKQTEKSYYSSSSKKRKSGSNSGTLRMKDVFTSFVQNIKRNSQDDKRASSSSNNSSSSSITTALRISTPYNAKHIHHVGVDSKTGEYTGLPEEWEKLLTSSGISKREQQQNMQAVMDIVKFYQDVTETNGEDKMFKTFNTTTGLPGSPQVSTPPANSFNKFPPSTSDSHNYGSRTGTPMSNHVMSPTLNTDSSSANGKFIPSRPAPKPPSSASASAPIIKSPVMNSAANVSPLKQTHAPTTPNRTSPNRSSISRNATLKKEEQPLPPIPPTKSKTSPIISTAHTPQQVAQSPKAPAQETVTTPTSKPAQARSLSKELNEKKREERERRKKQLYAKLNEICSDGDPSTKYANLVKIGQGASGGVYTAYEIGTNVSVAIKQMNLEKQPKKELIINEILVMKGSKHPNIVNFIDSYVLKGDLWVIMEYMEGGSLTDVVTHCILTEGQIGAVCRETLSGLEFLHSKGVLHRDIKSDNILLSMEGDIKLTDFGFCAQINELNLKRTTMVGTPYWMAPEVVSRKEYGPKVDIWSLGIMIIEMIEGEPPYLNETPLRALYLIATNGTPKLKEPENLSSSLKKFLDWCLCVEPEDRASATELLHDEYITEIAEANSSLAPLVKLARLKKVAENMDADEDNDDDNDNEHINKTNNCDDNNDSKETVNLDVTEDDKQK

“Myo5 with SH3 AncA_3 (from UniProt Q04439)” was tested, and the interaction score (Abp1) was 0.865, the interaction score (Aim21) was 0.715 and the interaction score (Arc15) was 0.837. The interaction score (Arc18) was 0.812, the interaction score (Arc19) was 0.724 and the interaction score (Arc40) was 0.902. The interaction score (Bbc1) was 0.698, the interaction score (Bmh1) was 0.762 and the interaction score (Bzz1) was 0.767. The interaction score (Cdc10) was 0.404, the interaction score (Cdc3) was 0.466 and the interaction score (Chc1) was 0.553. For the same substance, the interaction score (Cmd1) was 0.405, the interaction score (Hek2) was 0.366 and the interaction score (Hsp104) was 0.724. For the same substance, the interaction score (Las17) was 0.823, the interaction score (Lsb3) was 0.595 and the interaction score (Mid2) was 0.821. The interaction score (Myo5) was 0.869, the interaction score (Nap1) was 0.444 and the interaction score (Osh2) was 0.703. The interaction score (Pab1) was 0.756, the interaction score (Pan1) was 0.876 and the interaction score (Pfk1) was 0.807. For the same substance, the interaction score (Pkh2) was 0.142, the interaction score (Rvs167) was 0.501 and the interaction score (Sac6) was 0.775. The interaction score (Sbp1) was 0.772, the interaction score (Sfk1) was 0.691 and the interaction score (Sla1) was 0.51. The interaction score (Sla2) was 0.59, the interaction score (Smi1) was 0.514 and the interaction score (Srv2) was 0.591. It also gave an interaction score (Ssa1) of 0.849, an interaction score (Ssb1) of 0.889 and an interaction score (Ssb2) of 0.881. It also gave an interaction score (Ssz1) of 0.776, an interaction score (Ste20) of 0.424 and an interaction score (Syp1) of 0.513. It also gave an interaction score (Tif4631) of 0.621, an interaction score (Vrp1) of 0.862 and an interaction score (Ygl242c) of 0.881. It also gave an interaction score (Yor1) of 0.467 and an interaction score (Ysc84) of 0.455.

For “Myo5 with SH3 AncD (from UniProt Q04439)”, the interaction score (Abp1) was 0.878, the interaction score (Aim21) was 0.647 and the interaction score (Arc15) was 0.887. For the same substance, the interaction score (Arc18) was 0.825, the interaction score (Arc19) was 0.655 and the interaction score (Arc40) was 0.952. It also gave an interaction score (Bbc1) of 0.562, an interaction score (Bmh1) of 0.838 and an interaction score (Bzz1) of 0.701. The interaction score (Cdc10) was 0.31, the interaction score (Cdc3) was 0.353 and the interaction score (Chc1) was 0.589. The interaction score (Cmd1) was 0.278, the interaction score (Hek2) was 0.351 and the interaction score (Hsp104) was 0.77. It also gave an interaction score (Las17) of 0.785, an interaction score (Lsb3) of 0.487 and an interaction score (Mid2) of 0.827. It also gave an interaction score (Myo5) of 0.862, an interaction score (Nap1) of 0.463 and an interaction score (Osh2) of 0.352. It also gave an interaction score (Pab1) of 0.805, an interaction score (Pan1) of 0.87 and an interaction score (Pfk1) of 0.862. It also gave an interaction score (Pkh2) of 0.0507, an interaction score (Rvs167) of 0.273 and an interaction score (Sac6) of 0.793. The interaction score (Sbp1) was 0.83, the interaction score (Sfk1) was 0.545 and the interaction score (Sla1) was 0.309. It also gave an interaction score (Sla2) of 0.473, an interaction score (Smi1) of 0.551 and an interaction score (Srv2) of 0.522. The interaction score (Ssa1) was 0.903, the interaction score (Ssb1) was 0.935 and the interaction score (Ssb2) was 0.938. It also gave an interaction score (Ssz1) of 0.848, an interaction score (Ste20) of 0.718 and an interaction score (Syp1) of 0.338. It also gave an interaction score (Tdh3) of 0.968, an interaction score (Tif4631) of 0.687 and an interaction score (Vrp1) of 0.855. The interaction score (Ygl242c) was 0.949, the interaction score (Yor1) was 0.254 and the interaction score (Ysc84) was 0.318.
